Data on one substance can be found in article PMC9909426.

The experiment concerns the target Orange Carotenoid Protein variant OCP-W288_BTA (Synechocystis sp. PCC 6803 OCP with Trp288 replaced by 3-benzothienyl-L-alanine) (Synechocystis sp. PCC 6803) (UniProt P74102). The experiment is described as follows: SEC; preparative SEC, Superdex 200 Increase 10/300, after IMAC and HIC; pink, earlier eluting fraction OCP-W288_BTA(P). Background: In gel filtration, larger molecules generally elute earlier.

With “Orange Carotenoid Protein variant OCP-W288_BTA (Synechocystis sp. PCC 6803 OCP with Trp288 replaced by 3-benzothienyl-L-alanine) (from UniProt P74102 1-317) (natural protein)”, the stoichiometry N (usually a count of units in the complex or per binding partner) amounted to 2.
